Measured values published in patent US20030170823A1 (ZymoGenetics, published 2003).

Target: T1, CRF2-4/zcytor11 heterodimeric receptor on BaF3 cells (human, UniProt Q08334 20-325, limits assumed)
T1 sequence 1: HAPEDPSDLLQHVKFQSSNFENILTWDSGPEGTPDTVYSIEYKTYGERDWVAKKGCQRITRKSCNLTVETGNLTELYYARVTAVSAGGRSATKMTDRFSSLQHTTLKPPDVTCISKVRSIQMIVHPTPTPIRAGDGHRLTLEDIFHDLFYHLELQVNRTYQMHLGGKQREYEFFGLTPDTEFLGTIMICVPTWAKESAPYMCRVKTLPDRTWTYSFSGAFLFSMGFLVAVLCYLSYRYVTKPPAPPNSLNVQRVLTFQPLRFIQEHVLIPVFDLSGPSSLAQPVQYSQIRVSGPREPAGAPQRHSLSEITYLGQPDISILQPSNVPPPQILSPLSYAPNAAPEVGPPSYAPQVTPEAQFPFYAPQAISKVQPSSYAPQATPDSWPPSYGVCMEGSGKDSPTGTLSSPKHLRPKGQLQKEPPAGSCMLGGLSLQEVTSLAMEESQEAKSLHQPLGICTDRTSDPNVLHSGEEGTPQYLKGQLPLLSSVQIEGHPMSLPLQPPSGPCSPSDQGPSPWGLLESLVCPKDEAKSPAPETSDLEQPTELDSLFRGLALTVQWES
T1 sequence 2: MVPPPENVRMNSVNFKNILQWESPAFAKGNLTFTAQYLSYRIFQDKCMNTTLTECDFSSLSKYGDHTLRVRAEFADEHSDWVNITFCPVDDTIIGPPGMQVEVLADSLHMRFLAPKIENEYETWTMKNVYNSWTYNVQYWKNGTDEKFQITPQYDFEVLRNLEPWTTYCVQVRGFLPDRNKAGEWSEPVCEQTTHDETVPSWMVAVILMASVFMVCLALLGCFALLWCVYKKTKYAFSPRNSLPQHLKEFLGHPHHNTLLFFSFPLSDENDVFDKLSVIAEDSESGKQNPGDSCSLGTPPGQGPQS
Test: cell-based or functional assay

B1: ZCYTO18-CEE polypeptide purified from BHK 570 cells (ligand)
chain: APISSHCRLDKSNFQQPYITNRTFMLAKEASLADNNTDVRLIGEKLFHGVSMSERCYLMKQVLNFTLEEVLFPQSDRFQPYMQEVVPFLARLSNRLSTCHIEGDDLHIQRNVQKLKDTVKKLGESGEIKAIGELDLLFMSLRNACIEYMPME
proliferation of BaF3/CRF2-4/zcytor11 cells (Alamar Blue), fold induction at 0.06 ng/ml ZCYTO18-CEE: ~2 fold induction
proliferation of BaF3/CRF2-4/zcytor11 cells (Alamar Blue), fold over background at 50 ng/ml ZCYTO18-CEE: ~15 fold over background
